Laboratory results reported in patent US12679878B2, “CRF2 receptor agonists and their use in therapy” (SANOFI, priority 2020, dated 2026).
Starred links: 1 amine or outer side, 2 acyl side, 3 side chain; linkers in the order of their positions; H or OH if unused. Non-standard residues stand in square brackets, D forms with d. Groups on a side chain read outwards from the residue. No end group written: not given here. *: point of attachment. C18 diacid = O=C(O)CCCCCCCCCCCCCCCCC(=O)*; γGlu = O=C(O)[C@H](CCC(=O)[*:2])N[*:1]; AEEA = NCCOCCOCC(=O)O; Aib = CC(C)(N)C(=O)O

B1: SEQ ID NO: 102 (peptide)
peptide: IVLSLD[dV]PIKLK([AEEA-AEEA-γGlu-C18 diacid])QILLKQERQKKQREQAETNKQILAQV-NH2
modifications: N-terminus assumed
SMILES: CC[C@H](C)[C@H](N)C(=O)N[C@H](C(=O)N[C@@H](CC(C)C)C(=O)N[C@@H](CO)C(=O)N[C@@H](CC(C)C)C(=O)N[C@@H](CC(=O)O)C(=O)N[C@@H](C(=O)N1CCC[C@H]1C(=O)N[C@H](C(=O)N[C@@H](CCCCN)C(=O)N[C@@H](CC(C)C)C(=O)N[C@@H](CCCCNC(=O)COCCOCCNC(=O)COCCOCCNC(=O)CC[C@H](NC(=O)CCCCCCCCCCCCCCCCC(=O)O)C(=O)O)C(=O)N[C@@H](CCC(N)=O)C(=O)N[C@H](C(=O)N[C@@H](CC(C)C)C(=O)N[C@@H](CC(C)C)C(=O)N[C@@H](CCCCN)C(=O)N[C@@H](CCC(N)=O)C(=O)N[C@@H](CCC(=O)O)C(=O)N[C@@H](CCCNC(=N)N)C(=O)N[C@@H](CCC(N)=O)C(=O)N[C@@H](CCCCN)C(=O)N[C@@H](CCCCN)C(=O)N[C@@H](CCC(N)=O)C(=O)N[C@@H](CCCNC(=N)N)C(=O)N[C@@H](CCC(=O)O)C(=O)N[C@@H](CCC(N)=O)C(=O)N[C@@H](C)C(=O)N[C@@H](CCC(=O)O)C(=O)N[C@H](C(=O)N[C@@H](CC(N)=O)C(=O)N[C@@H](CCCCN)C(=O)N[C@@H](CCC(N)=O)C(=O)N[C@H](C(=O)N[C@@H](CC(C)C)C(=O)N[C@@H](C)C(=O)N[C@@H](CCC(N)=O)C(=O)N[C@H](C(N)=O)C(C)C)[C@@H](C)CC)[C@@H](C)O)[C@@H](C)CC)[C@@H](C)CC)C(C)C)C(C)C
B2: SEQ ID NO: 99 (peptide)
peptide: IVLSLDVPIKLK([AEEA-AEEA-γGlu-C18 diacid])KILLKQERQKK[Aib]REQAEKNKQILAQV-NH2
modifications: N-terminus assumed
SMILES: CC[C@H](C)[C@H](N)C(=O)N[C@H](C(=O)N[C@@H](CC(C)C)C(=O)N[C@@H](CO)C(=O)N[C@@H](CC(C)C)C(=O)N[C@@H](CC(=O)O)C(=O)N[C@H](C(=O)N1CCC[C@H]1C(=O)N[C@H](C(=O)N[C@@H](CCCCN)C(=O)N[C@@H](CC(C)C)C(=O)N[C@@H](CCCCNC(=O)COCCOCCNC(=O)COCCOCCNC(=O)CC[C@H](NC(=O)CCCCCCCCCCCCCCCCC(=O)O)C(=O)O)C(=O)N[C@@H](CCCCN)C(=O)N[C@H](C(=O)N[C@@H](CC(C)C)C(=O)N[C@@H](CC(C)C)C(=O)N[C@@H](CCCCN)C(=O)N[C@@H](CCC(N)=O)C(=O)N[C@@H](CCC(=O)O)C(=O)N[C@@H](CCCNC(=N)N)C(=O)N[C@@H](CCC(N)=O)C(=O)N[C@@H](CCCCN)C(=O)N[C@@H](CCCCN)C(=O)NC(C)(C)C(=O)N[C@@H](CCCNC(=N)N)C(=O)N[C@@H](CCC(=O)O)C(=O)N[C@@H](CCC(N)=O)C(=O)N[C@@H](C)C(=O)N[C@@H](CCC(=O)O)C(=O)N[C@@H](CCCCN)C(=O)N[C@@H](CC(N)=O)C(=O)N[C@@H](CCCCN)C(=O)N[C@@H](CCC(N)=O)C(=O)N[C@H](C(=O)N[C@@H](CC(C)C)C(=O)N[C@@H](C)C(=O)N[C@@H](CCC(N)=O)C(=O)N[C@H](C(N)=O)C(C)C)[C@@H](C)CC)[C@@H](C)CC)[C@@H](C)CC)C(C)C)C(C)C
B3: SEQ ID NO: 98 (peptide)
peptide: IVLSLDVPIKLK([AEEA-AEEA-γGlu-C18 diacid])QKLLKQERQKK[Aib]REQAETNKQILAQV-NH2
modifications: N-terminus assumed
SMILES: CC[C@H](C)[C@H](N)C(=O)N[C@H](C(=O)N[C@@H](CC(C)C)C(=O)N[C@@H](CO)C(=O)N[C@@H](CC(C)C)C(=O)N[C@@H](CC(=O)O)C(=O)N[C@H](C(=O)N1CCC[C@H]1C(=O)N[C@H](C(=O)N[C@@H](CCCCN)C(=O)N[C@@H](CC(C)C)C(=O)N[C@@H](CCCCNC(=O)COCCOCCNC(=O)COCCOCCNC(=O)CC[C@H](NC(=O)CCCCCCCCCCCCCCCCC(=O)O)C(=O)O)C(=O)N[C@@H](CCC(N)=O)C(=O)N[C@@H](CCCCN)C(=O)N[C@@H](CC(C)C)C(=O)N[C@@H](CC(C)C)C(=O)N[C@@H](CCCCN)C(=O)N[C@@H](CCC(N)=O)C(=O)N[C@@H](CCC(=O)O)C(=O)N[C@@H](CCCNC(=N)N)C(=O)N[C@@H](CCC(N)=O)C(=O)N[C@@H](CCCCN)C(=O)N[C@@H](CCCCN)C(=O)NC(C)(C)C(=O)N[C@@H](CCCNC(=N)N)C(=O)N[C@@H](CCC(=O)O)C(=O)N[C@@H](CCC(N)=O)C(=O)N[C@@H](C)C(=O)N[C@@H](CCC(=O)O)C(=O)N[C@H](C(=O)N[C@@H](CC(N)=O)C(=O)N[C@@H](CCCCN)C(=O)N[C@@H](CCC(N)=O)C(=O)N[C@H](C(=O)N[C@@H](CC(C)C)C(=O)N[C@@H](C)C(=O)N[C@@H](CCC(N)=O)C(=O)N[C@H](C(N)=O)C(C)C)[C@@H](C)CC)[C@@H](C)O)[C@@H](C)CC)C(C)C)C(C)C
B4: SEQ ID NO: 101 (peptide)
peptide: IVLSLDVPIKLK([AEEA-AEEA-γGlu-C18 diacid])KILLKQERQKK[Aib]REQAETNKQILERV-NH2
modifications: N-terminus assumed
SMILES: CC[C@H](C)[C@H](N)C(=O)N[C@H](C(=O)N[C@@H](CC(C)C)C(=O)N[C@@H](CO)C(=O)N[C@@H](CC(C)C)C(=O)N[C@@H](CC(=O)O)C(=O)N[C@H](C(=O)N1CCC[C@H]1C(=O)N[C@H](C(=O)N[C@@H](CCCCN)C(=O)N[C@@H](CC(C)C)C(=O)N[C@@H](CCCCNC(=O)COCCOCCNC(=O)COCCOCCNC(=O)CC[C@H](NC(=O)CCCCCCCCCCCCCCCCC(=O)O)C(=O)O)C(=O)N[C@@H](CCCCN)C(=O)N[C@H](C(=O)N[C@@H](CC(C)C)C(=O)N[C@@H](CC(C)C)C(=O)N[C@@H](CCCCN)C(=O)N[C@@H](CCC(N)=O)C(=O)N[C@@H](CCC(=O)O)C(=O)N[C@@H](CCCNC(=N)N)C(=O)N[C@@H](CCC(N)=O)C(=O)N[C@@H](CCCCN)C(=O)N[C@@H](CCCCN)C(=O)NC(C)(C)C(=O)N[C@@H](CCCNC(=N)N)C(=O)N[C@@H](CCC(=O)O)C(=O)N[C@@H](CCC(N)=O)C(=O)N[C@@H](C)C(=O)N[C@@H](CCC(=O)O)C(=O)N[C@H](C(=O)N[C@@H](CC(N)=O)C(=O)N[C@@H](CCCCN)C(=O)N[C@@H](CCC(N)=O)C(=O)N[C@H](C(=O)N[C@@H](CC(C)C)C(=O)N[C@@H](CCC(=O)O)C(=O)N[C@@H](CCCNC(=N)N)C(=O)N[C@H](C(N)=O)C(C)C)[C@@H](C)CC)[C@@H](C)O)[C@@H](C)CC)[C@@H](C)CC)C(C)C)C(C)C
B5: SEQ ID NO: 103 (peptide)
peptide: IVLSLDVPIKLK([AEEA-AEEA-γGlu-C18 diacid])QILLEQERQK[Aib]QREQAETNKQILAQV-NH2
modifications: N-terminus assumed
SMILES: CC[C@H](C)[C@H](N)C(=O)N[C@H](C(=O)N[C@@H](CC(C)C)C(=O)N[C@@H](CO)C(=O)N[C@@H](CC(C)C)C(=O)N[C@@H](CC(=O)O)C(=O)N[C@H](C(=O)N1CCC[C@H]1C(=O)N[C@H](C(=O)N[C@@H](CCCCN)C(=O)N[C@@H](CC(C)C)C(=O)N[C@@H](CCCCNC(=O)COCCOCCNC(=O)COCCOCCNC(=O)CC[C@H](NC(=O)CCCCCCCCCCCCCCCCC(=O)O)C(=O)O)C(=O)N[C@@H](CCC(N)=O)C(=O)N[C@H](C(=O)N[C@@H](CC(C)C)C(=O)N[C@@H](CC(C)C)C(=O)N[C@@H](CCC(=O)O)C(=O)N[C@@H](CCC(N)=O)C(=O)N[C@@H](CCC(=O)O)C(=O)N[C@@H](CCCNC(=N)N)C(=O)N[C@@H](CCC(N)=O)C(=O)N[C@@H](CCCCN)C(=O)NC(C)(C)C(=O)N[C@@H](CCC(N)=O)C(=O)N[C@@H](CCCNC(=N)N)C(=O)N[C@@H](CCC(=O)O)C(=O)N[C@@H](CCC(N)=O)C(=O)N[C@@H](C)C(=O)N[C@@H](CCC(=O)O)C(=O)N[C@H](C(=O)N[C@@H](CC(N)=O)C(=O)N[C@@H](CCCCN)C(=O)N[C@@H](CCC(N)=O)C(=O)N[C@H](C(=O)N[C@@H](CC(C)C)C(=O)N[C@@H](C)C(=O)N[C@@H](CCC(N)=O)C(=O)N[C@H](C(N)=O)C(C)C)[C@@H](C)CC)[C@@H](C)O)[C@@H](C)CC)[C@@H](C)CC)C(C)C)C(C)C
B6: SEQ ID NO: 100 (peptide)
peptide: IVLSLDVPIKLK([AEEA-AEEA-γGlu-C18 diacid])KILLKQERQKK[Aib]REQAETN[Aib]QILAQV-NH2
modifications: N-terminus assumed
SMILES: CC[C@H](C)[C@H](N)C(=O)N[C@H](C(=O)N[C@@H](CC(C)C)C(=O)N[C@@H](CO)C(=O)N[C@@H](CC(C)C)C(=O)N[C@@H](CC(=O)O)C(=O)N[C@H](C(=O)N1CCC[C@H]1C(=O)N[C@H](C(=O)N[C@@H](CCCCN)C(=O)N[C@@H](CC(C)C)C(=O)N[C@@H](CCCCNC(=O)COCCOCCNC(=O)COCCOCCNC(=O)CC[C@H](NC(=O)CCCCCCCCCCCCCCCCC(=O)O)C(=O)O)C(=O)N[C@@H](CCCCN)C(=O)N[C@H](C(=O)N[C@@H](CC(C)C)C(=O)N[C@@H](CC(C)C)C(=O)N[C@@H](CCCCN)C(=O)N[C@@H](CCC(N)=O)C(=O)N[C@@H](CCC(=O)O)C(=O)N[C@@H](CCCNC(=N)N)C(=O)N[C@@H](CCC(N)=O)C(=O)N[C@@H](CCCCN)C(=O)N[C@@H](CCCCN)C(=O)NC(C)(C)C(=O)N[C@@H](CCCNC(=N)N)C(=O)N[C@@H](CCC(=O)O)C(=O)N[C@@H](CCC(N)=O)C(=O)N[C@@H](C)C(=O)N[C@@H](CCC(=O)O)C(=O)N[C@H](C(=O)N[C@@H](CC(N)=O)C(=O)NC(C)(C)C(=O)N[C@@H](CCC(N)=O)C(=O)N[C@H](C(=O)N[C@@H](CC(C)C)C(=O)N[C@@H](C)C(=O)N[C@@H](CCC(N)=O)C(=O)N[C@H](C(N)=O)C(C)C)[C@@H](C)CC)[C@@H](C)O)[C@@H](C)CC)[C@@H](C)CC)C(C)C)C(C)C

Molecular target: human corticotropin-releasing factor 2α (CRF2 α receptor) (human), Q13324
Sequence (Q13324 20-411): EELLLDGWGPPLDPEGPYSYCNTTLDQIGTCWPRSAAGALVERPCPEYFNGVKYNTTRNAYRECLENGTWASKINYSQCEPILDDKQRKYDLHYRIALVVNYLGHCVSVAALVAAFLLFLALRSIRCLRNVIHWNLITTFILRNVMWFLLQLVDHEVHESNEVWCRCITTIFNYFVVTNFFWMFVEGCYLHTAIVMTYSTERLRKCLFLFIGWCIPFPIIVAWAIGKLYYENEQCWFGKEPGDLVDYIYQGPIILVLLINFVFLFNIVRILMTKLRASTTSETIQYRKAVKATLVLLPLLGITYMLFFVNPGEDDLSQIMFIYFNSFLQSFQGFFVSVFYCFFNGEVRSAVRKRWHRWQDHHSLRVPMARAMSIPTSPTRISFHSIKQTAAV
Experiment: cell-based or functional assay

Row | Binder | EC50 [nM], 0% HSA | EC50 [nM], 0.1% HSA
1 | B1 | 0.07 nM | 
2 | B2 | 0.06 nM | 1.6 nM
3 | B3 | 2.36 nM | 
4 | B4 | 0.11 nM | 4.28 nM
5 | B5 | 0.84 nM | 
6 | B6 | 0.51 nM | 20.5 nM
